Reference: PMC2114792 (The Journal of Cell Biology, 1987)

Target: the molecule itself
Test: rotary shadowing electron microscopy

B1: chicken hexabrachion protein (myotendinous (M1) antigen) (natural protein, UniProt P10039 34-1808, looked up)
chain: ETGLNVTLPEDNQPVVFNHVYNIKLPVGSLCSVDLDTASGDADLKAEIEPVKNYEEHTVNEGNQIVFTHRINIPRRACGCAAAPDIKDLLSRLEELEGLVSSLREQCASGAGCCPNSQTAEGRLDTAPYCSGHGNYSTEICGCVCEPGWKGPNCSEPACPRNCLNRGLCVRGKCICEEGFTGEDCSQAACPSDCNDQGKCVDGVCVCFEGYTGPDCGEELCPHGCGIHGRCVGGRCVCHEGFTGEDCNEPLCPNNCHNRGRCVDNECVCDEGYTGEDCGELICPNDCFDRGRCINGTCFCEEGYTGEDCGELTCPNNCNGNGRCENGLCVCHEGFVGDDCSQKRCPKDCNNRGHCVDGRCVCHEGYLGEDCGELRCPNDCHNRGRCINGQCVCDEGFIGEDCGELRCPNDCHNRGRCVNGQCECHEGFIGEDCGELRCPNDCNSHGRCVNGQCVCDEGYTGEDCGELRCPNDCHNRGRCVEGRCVCDNGFMGEDCGELSCPNDCHQHGRCVDGRCVCHEGFTGEDCRERSCPNDCNNVGRCVEGRCVCEEGYMGIDCSDVSPPTELTVTNVTDKTVNLEWKHENLVNEYLVTYVPTSSGGLDLQFTVPGNQTSATIHELEPGVEYFIRVFAILKNKKSIPVSARVATYLPAPEGLKFKSVRETSVQVEWDPLSISFDGWELVFRNMQKKDDNGDITSSLKRPETSYMQPGLAPGQQYNVSLHIVKNNTRGPGLSRVITTKLDAPSQIEAKDVTDTTALITWSKPLAEIEGIELTYGPKDVPGDRTTIDLSEDENQYSIGNLRPHTEYEVTLISRRGDMESDPAKEVFVTDLDAPRNLKRVSQTDNSITLEWKNSHANIDNYRIKFAPISGGDHTELTVPKGNQATTRATLTGLRPGTEYGIGVTAVRQDRESAPATINAGTDLDNPKDLEVSDPTETTLSLRWRRPVAKFDRYRLTYVSPSGKKNEMEIPVDSTSFILRGLDAGTEYTISLVAEKGRHKSKPTTIKGSTEEEPELGNLSVSETGWDGFQLTWTAADGAYENFVIQVQQSDNPEETWNITVPGGQHSVNVTGLKANTPYNVTLYGVIRGYRTKPLYVETTTGAHPEVGELTVSDITPESFNLSWTTTNGDFDAFTIEIIDSNRLLEPMEFNISGNSRTAHISGLSPSTDFIVYLYGISHGFRTQAISAAATTEAEPEVDNLLVSDATPDGFRLSWTADDGVFDSFVLKIRDTKRKSDPLELIVPGHERTHDITGLKEGTEYEIELYGVSSGRRSQPINSVATTVVGSPKGISFSDITENSATVSWTPPRSRVDSYRVSYVPITGGTPNVVTVDGSKTRTKLVKLVPGVDYNVNIISVKGFEESEPISGILKTALDSPSGLVVMNITDSEALATWQPAIAAVDNYIVSYSSEDEPEVTQMVSGNTVEYDLNGLRPATEYTLRVHAVKDAQKSETLSTQFTTGLDAPKDLSATEVQSETAVITWRPPRAPVTDYLLTYESIDGRVKEVILDPETTSYTLTELSPSTQYTVKLQALSRSMRSKMIQTVFTTTGLLYPYPKDCSQALLNGEVTSGLYTIYLNGDRTQPLQVFCDMAEDGGGWIVFLRRQNGKEDFYRNWKNYVAGFGDPKDEFWIGLENLHKISSQGQYELRVDLRDRGETAYAVYDKFSVGDAKTRYRLRVDGYSGTAGDSMTYHNGRSFSTFDKDNDSAITNCALSYKGAFWYKNCHRVNLMGRYGDNNHSQGVNWFHWKGHEYSIQFAEMKLRPSSFRNLEGRRKRA
- stoichiometry N: 6
